Results: US20140287419A1, “Compositions Having Dicamba Decarboxylase Activity and Methods of Use” (priority 2013, published 2014)

Experiment: 14C assay with IPTG-induced recombinant E. coli cells (14CO2 capture from [14C]-carboxyl-labeled dicamba)
Details: for Dicamba Decarboxylase Activity: IPTG-induced recombinant E. coli cells, [14C]-carboxyl-labeled dicamba, 14CO2 capture; for Enzymatic Detection level: dicamba decarboxylation activity of the protein of the given SEQ ID NO

Row | Molecule | Dicamba Decarboxylase Activity | Enzymatic Detection level
1 | 48 (protein, listed as Amycolatopsis mediterranei) MASMKLYGLEEHFVTADVIEAWRRRDPGLAEPMMKWAVASDITPALLDVDGGRIAAMDDAGIDTTVLSLTTPGLQNLDAAEAVALQAPTNDLIAAAVRRHPGRFQGFATLATSAPAAAADELRRAVTELGLNGALVNANSRGRALDAPGFWDIYEAAEDLRAPVYLHPGVPVPAVTEAYYRGFGEPVNSMLATGAFGWHYDAGLTILRMIVAGVFDRFPGLQVILGHWGEVVLFYLDRVAAMDKLTALRRPIAEYFRSNIFITPGGISSHKYLRWSLETVGVERIMYASDYPFNTERAGSARRFLDTAPVDEAGRERIAYRNWEELIAGIRR | High | High
2 | 51 (protein, listed as Mycobacterium gilvum) MARVIAIEEHYAHPGLQPAEALANLRKHPQLARIQDKLEDLGAGRLADMDAAGIDMQVLSHTVPGAEALPAAQAVDVVRQTNDDLAEVIAAHPDRFAGFAALPMRDPQAAATELQRAVGTLGFCGAMINGLIEGRFLDHPDFTPLLSTAADLGVPLYLHPSFPPPQVAQIYFGGLPPVLADLLATAGWGWHAETALHVLRLISTGVFDRLPELRVIVGHMGEMIPFALARIDTVLSPMTELRQPVAQYFQTNVWFTTSGYTTFPPLQCALSTVGIDRLIFSVDYPYTDNASARALLDTAPISPVDREKLAHATVEALLRV | High | High
3 | 53 (protein, listed as Granulicella tundricola) MARTITLEEHFVTDSFLRATGAYDKPAPPWLAQLQPKLLDLGDGRIAAMDEAGIDLQVLSLAALGFDALDAATATPLVHDINDELAAAVRANPTRLAAFASLALKDPQSAARELERAIQKLGFRGVLLDGTTDGLFLDDPRFTPVFEAAVALNVPIYLHPAPPPESVFDTYFTGLPEGVGQMLSIAGWGWHAETALHTLRLITNGVFDRYPTLQLIIGHMGEMLPMALARTSKALSHAARLRQPVAAYFQSNIHLTTSGYFTQPPLRCALDVVGIDRLMFSIDYPFSANTLGRDYLTELEQTLTPEDLAKLIHRNAESLLNLS | High | High
4 | 44 (protein, listed as Mycobacterium avium) MARIITVEEHFQHPEVSARVAELTGPAVEGLAEFGNAFSLDPDSTARLGGNRLAHMDQVGIDVQVVSHGNGSPGTLQHPEAVELCRRVNNDLAAQIAENPDRFRGFATLPLYDPAAAAEELRRCVGDLGFVGALIAGSYDGLFLDDERFDPILTAAEAVDFPIYVHPGLPEAPVSQRYYAGSWPASVHMMFSGPAFGWHAEAGIHIVRLILSGALDRHPTLKLLSGHWGELAAFYLERLDETLGLLPTGLERAPSDYYRQQVWITPSGMYNQNQLNFMTAELGAQRIIYSEDFPYVVRDNVSTFLEQAGLSEADTHAIAHTNAEALLRI | High | High
5 | 45 (protein, Mycobacterium sp) MANDDLAEVIAAHPDRFAGFAALPMRDPQAAAVELQRAVGTHGFCGAMINGLIEGRFLDDPAFAPLLSTAADLGVPLYLHPSFPPPQVAEIYFGGLAPVLGDLLATAGWGWHAETALHVLRLVATGVFDRLPELWVIVGHMGEMIPFALARIDTVLSPVAQLRQPVAQYFQTNVWFTTSGYTTFPPLQCALSTVGIDRLIFSVDYPYTDNTSARALLDTAPISPVDREKLAHGTVEALLRV | No | No
6 | 50 (protein, listed as Streptomyces sp.) MARIVTLEEHWTDPAVTAAGMPNLLDHVPGYAAAFDPDTGMPYPRHPELLEDLGAARIADMDRHGITTQVLSLVNTFLPADVAPRLTAAANDAMAAAVEAFPGRFAAFATLPTAVPGAAADELRRCVGELGFVGTMIMGRTDGEFLDQPRFDPILRAASDLSVPVYLHPAPPPVAVSEASYAGGLSPAVSAAFRLAAWGWHQETAVHLLHLVLAGVLDRYPGLQFVLGHWGEFIPFYLDRLDESMPRRMTGLDRTFREYFRDNVFITPSGMFSQAQLRYCADTVGTDRIIHSVDFPMLGNEGAVSFLTDSHLSREDQEKIAHGNADALLGLG | High | High
7 | 43 (protein, listed as Rhizobium leguminosarum) MAQGKIALEEHFAIPETLQDSAGFVPGDYWTELSARLLDIQDKRLRLMDTHGIEKMILSLNAPAVQAIPDKAKAVEISRRANDFLAEQCVKNPNRFLGFAALPLQDPDAATQELQRCVTTMGFVGALVNGFSQEGDGTTPLYYDLPQYRPFWAEVEKLDVPFYLHPRNPLPQDSRIYAGHSWLMGPTWAFAQETAVHALRLMGSGLFDEHPALRIIVGHMGEGLPYMMWRIDNRNAWVKVEKSYPAKRPIADYFNENFYITTSGNFRTQSLIDAMLEIGADRILFSADWPFENVDHAANWFDSATISEADRLKIGRTNAVSLFKLDR | High | High
8 | 47 (protein, listed as Serratia odorifera) MAKIICLEEHTLDKALVMASMPAALAQAPFLSDWGKTITDGNLPDRSRPQIEKNDLINVKGADIGRGRLDDMDEAGITMQVLSVGGFPHLISAAEGVDLNRAANDRLANAVNAHPDRFAAFATLPWAQPDAAEKELERAVKELGFKGALLNGRPSIHFLDHPDYDGLLARFNALGVPLYLHPGLPVRSVQQAYYSGFSDEVTARLSMFGWGWHHEAGIHLLRLILSGAFDKYPNLQVISGHWGEMLPFWLQRLDDSLPQAATGLRRTITQTFREQVYVTPSGMLTLPHFQFIYALLGAERILFSVDYPYQTLDGVKAFIQSLPVPEEAKEAIAFRNAERLFGLTS | High | High
9 | 49 (protein, listed as Streptomyces sp.) MAKIIALEEHFSDPAVAKAGAARARALSPGFAASYSPASGLPYSPSPEVLENLAEKRLADMDAGGITMQVLSGLGAQTVPADVAPALVAGSNDKAAAAVRAHPDRFAAFAALPTATPEAAVAELDRSVNELGFVGTLIMGRTEGEFLDAPRFEPILARAAALKVPVFLHPGVPPREITDSNYAAGLPTGIGTRLQTAAWGWHQETAVHFLHLVHSGVLDRYPDLQFILGHWGEMIPFYLDRVDEALPQRATGLDRSFHEYFRENVYLAPSGMWSQAQLRFCLETVPLERIVFAVDYPFIGNEGAVPFLEKAELPQADKRKIAHENAERLLGL | High | High
10 | 52 (protein, listed as Streptomyces sp.) MAKIIALEEHFSDPAVAKAGAARAQALSPGFAASYSPASGLPYSPSPEVLENLAEKRLADMDAGGITMQVLSGLSAQTVPADVAPALVAGSNDKAAAAVRAHPDRFAAFAALPTAAPEAAVAELDRSVNELGFVGTLIMGRTEGEFLDAPRFEPILARAAALKVPVFLHPGVPPREITDSNYAAGLPTGIGTRLQTAAWGWHQETAVHFLHLVHSGVLDRYPDLQFILGHWGETIPFYLDRVDEALPQRATGLDRSFHEYFRENVYLAPSGMWSQAQLRFCLETFPLERIVFAVDYPFIGNEGAVPFLEKAELPEADKRKIAHENAERLLGL | High | High
11 | 54 (protein, listed as Streptomyces sp.) MAKIIALEEHFSDPAVAKAGAARAQALSPGFAASYSPASGLPYSPSPEVLENLAEKRLADMDAGGITMQVLSGLGAQTVPADVAPALVAGSNDKAAAAVRAHPDRFAAFAALPTAAPEAAVAELDRSINELGFVGTLIMGRTEGEFLDAPRFEPILARAAALKVPVFLHPGVPPREITDSNYAAGLPTGIGTRLQTAAWGWHQETAVHFLHLVHSGVLDRYPGLQFILGHWGEMIPFYLDRVDEALPQRATGLDRSFHEYFRENVYLAPSGMWSQAQLRFCLETVPLERIVFAVDYPFIGNEGAVPFLEKAELPEADKRKIAHENAERLLGL | High | High
12 | 55 (protein, listed as Serratia sp.) MAKIICLEEHTLDKALVMASMPAALEQAPFLSDWGKTVTDGNLPDRSRPQIEKNDLINIKGADIGRGRLDDMDVAGITMQVLSVGGFPHLISAAEGVDLNRAANDRLADAVNAHPDRFAAFATLPWAQPDSAEKELERAVKELGFKGALLNGRPSTHFLDHPDYDGLLARFNALGVPLYLHPGLPVRSVQQAYYGGFSDEVTARLSMFGWGWHHEAGIHLLRLILSGAFDKYPNLQVISGHWGEMLPFWLQRLDDSLPQAATGLRRTIAQTFKEQVYVTPSGMLTLPHFQFIYALLGAERIIFSVDYPYQTLDGVKAFIQSLPVPEEAKEAIAFRNAERLLGLTS | High | High
13 | 46 (protein, listed as Rhodococcus opacus) MARIITLEEHYLDPAIAAASAPLARELSPDFAAAYDPASGLSYTPSAQVLQDLGQRRIADMDTHGISMQVLSCLTTQQVPADVAPDLVRAANDTAAAAVRAHPDRFAAFAALPTTAPDAAATELARCIDDLGFVGTMINGRTDGEFLDAPRFDPILATAAARNVPIYLHPAVPPRATSDSNYAGLAPLVTARLQTSAWGWHQETAVHFLHLVLSGVLDRYPNLQFILGHWGEMIPFYLDRLDEALPQAVTNLDRTISDYVRENVYITPSGMFNQAQLQYCVETLGVDRILYSVDYPFIGNDGAVSFLDEANLPDEAKHQIAHQNTEKLLGL | High | High
14 | 42 (protein, Agrobacterium radiobacter) MAQGKIALEEHFAIPDTLQDSAGFVPGDYWKELSARLLDIHEQRLMQMDAYGIEKMILSLNAPAVQAIPDKAKALEISRRANDFLAEQCARNPDRFLGFAALPLQDPDAATAELQRCVKTLGFVGALVNGFSQEGDGVTPLYYDLPQYRGFWAEVEKLAVPFYLHPRNPLPQDSRIYAGHPWLMGPTWAFAQETAVHALRLVGSGLFDDHPALRIILGHMGEGLPYMMWRIDNRNAWVKVAPNYPAKRRIADYFNENFYITTSGNFRTQSLVDAMLEIGADRILFSTDWPFENIDHASDWFDTATISEADRLKIGRTNAATLFNLES | Low | Low
